One assay deals with T1, Human Trop2 (human, UniProt P09758 27-274).
T1 construct: Recombinant protein loaded onto His-K biosensors; also called TACSTD2; EGP-1
T1 sequence (looked up): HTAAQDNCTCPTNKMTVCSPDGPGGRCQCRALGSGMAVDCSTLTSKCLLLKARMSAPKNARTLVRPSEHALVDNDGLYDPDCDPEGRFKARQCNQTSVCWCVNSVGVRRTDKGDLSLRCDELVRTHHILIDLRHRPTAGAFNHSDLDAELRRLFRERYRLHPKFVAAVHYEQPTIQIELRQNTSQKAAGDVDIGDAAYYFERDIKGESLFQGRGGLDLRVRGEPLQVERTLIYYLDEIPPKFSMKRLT
The assay can be described thus: BLI (OctetR8), Trop2 on His-K probes, antibody in solution.

The target of a further assay is T2, Rhesus macaque Trop2 (rhesus macaque, UniProt A0A5F8AGB8 27-274).
T2 construct: Recombinant protein loaded onto His-K biosensors
T2 sequence: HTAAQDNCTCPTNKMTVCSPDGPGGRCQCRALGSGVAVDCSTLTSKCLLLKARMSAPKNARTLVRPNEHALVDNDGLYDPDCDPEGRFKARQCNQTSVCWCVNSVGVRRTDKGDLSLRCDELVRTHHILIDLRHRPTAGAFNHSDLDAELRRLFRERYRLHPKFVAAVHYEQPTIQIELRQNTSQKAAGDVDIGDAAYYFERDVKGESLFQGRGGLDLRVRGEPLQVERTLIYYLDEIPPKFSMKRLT
The description is as above.

B1: L2-conjugated antibody (anti-Trop2 monoclonal antibody conjugated to L2 linker) (antibody, human IgG1, V domains shown)
VH: EVQLVESGGGLVQPGGSLRLSCAASGFTFNNYAMSWVRQAPGKGLEWVSTISSDGTYTYYADSVKGRFTISRDNSKNTLYLQMNSLRAEDTAVYYCARHPPSYYYAFDYWGQGTTLTVSS
VL: EIVLTQSPGTLSLSPGERATLSCRASESVDSYGNSFIHWYQQKPGQAPRLLIYLASNLESGIPDRFSGSGSGTDFTLTISRLEPEDFAVYYCQQNNEDLWTFGGGTKLEIKA
modifications: L2 linker coupled to lysine residue(s); 1-4 (preferably 1-2) L2 linkers per antibody; chain and positions not stated; L2 linker (dibenzoazacyclooctyne-glutaryl-amino tetraethylene glycol-pentafluorophenyl acetylpiperidinate) coupled to lysine residue(s); 1-4 (preferably 1-2) L2 linkers per antibody; chain and positions not stated
notes: Each chain is the variable region followed by the constant region; also called IB12 (name of the expression plasmid)
For orientation: Kd means the concentration at which binding is half-saturated. In general, koff refers to the first-order rate constant of dissociation. One may read the kon as a measure of how fast the partners come together. A low value points to slower complex formation. For the molecule B1, in the assay with Human Trop2, the dissociation constant (Kd) was determined as 22.6 nM, the koff came out at 0.0127 s⁻¹ and the kon was 564000 M⁻¹ s⁻¹. Also, in the assay with Rhesus macaque Trop2, the off-rate constant (koff) was less than 1e-07 s⁻¹ and the kon was found to be 569000 M⁻¹ s⁻¹.

(Values after patent EP4696312A1 (IMBIORAY (HANGZHOU) BIOMEDICINE CO., LTD., dated 2024).)
